Experiment [1] addresses T1, human PD-1 on transfected CHO-K1 cells (human, UniProt Q15116 25-288).
T1 construct: also called Human PD-1 transfected CHO-K1 cells
Nature of the experiment: cell-based blocking assay, flow cytometry: binding of FITC labeled human PD-L1-Fc to human PD-1 transfected CHO-K1 cells is blocked. Here is the method:
Incubate for 15 mins before analysis with the iQue intellicyt system.
(A flow cytometer gives signals particle by particle.)

In experiment [2] the target is T2, recombinant human VEGF 165 (human, UniProt P15692-4 27-191).
T2 construct: Bought protein
The experiment can be described thus: blocking ELISA: VEGF-165 coated on the plate, binding of recombinant human VEGFR-2-hu IgG1-His Tag is blocked. Here is the method:
Briefly, 0.5 ug/ml of recombinant human VEGF-165 (R&D #293-VE-050/CF) in carbonate-bicarbonate buffer was coated to the wells in a 96-well assay plate and incubated overnight at 4° C. The wells were then washed 3 times with 0.05% Tween 20 in PBS (wash buffer), blocked with 1% BSA in PBS for 1 hour at room temperature, and washed 3 times with wash buffer. 50 μl 5-fold serially diluted antibodies were then added to wells in the plate and incubated for 30 minutes at room temperature. […] 100 μl anti-His tag HRP (1:10,000) was then added and the plates were incubated for 40 mins at room temperature and washed 3 times with wash buffer.

In experiment [3] the target is human TGFβ1 (human, UniProt P01137 279-390). Nature of the experiment: cell-based or functional assay.
In experiment [4] the target is T2, recombinant human VEGF 165. Nature of the experiment: blocking ELISA: VEGF 165 coated on the plate, binding of recombinant human VEGFR-2 is blocked. As for the experimental part:
(§1) In brief, 96-well assay plates were coated with 0.5 ug/ml of recombinant human VEGF 165 (R&D) in carbonate-bicarbonate buffer (pH 9.6) at 4° C. overnight followed by blocking with 1% BSA/PBS for 1 hour at room temperature. Serially diluted antibodies were then added to the plate and incubated for 30 minutes at room temperature. […] Followed by washing with Wash Buffer, goat anti-mouse IgG-HRP were added to the plate and incubated for 1 hour at room temperature. […] IC50 values were determined as the mid-point in the activity curve.
Background: In an ELISA, binding on a coated surface is turned into a signal by an enzyme label.

Experiment [5] deals with T2, recombinant human VEGF 165. Described as above. As for the experimental part:
as §1
This is another data set of the same source.

T2 sequence (P15692 other isoform, or with tags, fused parts or gaps limits assumed): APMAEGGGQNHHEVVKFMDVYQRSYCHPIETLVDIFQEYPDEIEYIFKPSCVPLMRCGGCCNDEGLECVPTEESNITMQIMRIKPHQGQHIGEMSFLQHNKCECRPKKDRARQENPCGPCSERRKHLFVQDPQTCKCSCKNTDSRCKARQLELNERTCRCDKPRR
T1 sequence (Q15116 25-288 limits assumed): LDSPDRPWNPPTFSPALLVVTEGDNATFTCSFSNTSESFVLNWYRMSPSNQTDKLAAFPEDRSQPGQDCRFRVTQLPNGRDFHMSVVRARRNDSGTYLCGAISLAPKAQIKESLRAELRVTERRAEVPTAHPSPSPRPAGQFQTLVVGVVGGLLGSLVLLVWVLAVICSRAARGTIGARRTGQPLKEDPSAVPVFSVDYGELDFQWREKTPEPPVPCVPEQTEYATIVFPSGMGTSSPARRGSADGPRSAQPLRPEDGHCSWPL
human TGFβ1, sequence (P01137 279-390 limits assumed): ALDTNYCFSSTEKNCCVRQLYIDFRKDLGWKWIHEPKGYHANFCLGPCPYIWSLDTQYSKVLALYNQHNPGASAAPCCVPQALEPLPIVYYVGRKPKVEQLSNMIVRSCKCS

B1: TS-ZPB-3(2P17) (other)
heavy: QVQLVQSGAEVKKPGASVKVSCKASGYTFTSYYIHWVRQAPGQGLEWMGWIFPGSGNSKYNENFKGRVTLTADTSTSTVYMELSSLRSEDTAVYYCASETYDYGDYWGQGTLVTVSSASTKGPSVFPLAPCSRSTSESTAALGCLVKDYFPEPVTVSWNSGALTSGVHTFPAVLQSSGLYSLSSVVTVPSSSLGTKTYTCNVDHKPSNTKVDKRVESKYGPPCPPCPAPEFLGGPSVFLFPPKPKDTLMISRTPEVTCVVVDVSQEDPEVQFNWYVDGVEVHNAKTKPREEQFNSTYRVVSVLTVLHQDWLNGKEYKCKVSNKGLPSSIEKTISKAKGQPREPQVYTLPPSQEEMIPPHVQKSVNNDMIVTDNNGAVKFPQLCKFCDVRFSTCDNQKSCMSNCSITSICEKPQEVCVAVWRKNDENITLETVCHDPKLPYHDFILEDAASPKCIMKEKKKPGETFFMCSCSSDECNDNIIFSEEYNTSNPDTKNQVSLTCLVKGFYPSDIAVEWESNGQPENNYKTTPPVLDSDGSFFLYSRLTVDKSRWQEGNVFSCSVMHEALHNHYTQKSLSLSLGKGGGGSGGGGSGGGGSSDTGRPFVEMYSEIPEIIHMTEGRELVIPCRVTSPNITVTLKKFPLDTLIPDGKRIIWDSRKGFIISNATYKEIGLLTCEATVNGHLYKTNYLTHRQTNTIIDVVLSPSHGIELSVGEKLVLNCTARTELNVGIDFNWEYPSSKHQHKKLVNRDLKTQSGSEMKKFLSTLTIDGVTRSDQGLYTCAASSGLMTKKNSTFVRVHEK
light: DIQMTQSPSFLSASVGDRVTITCKASQNVGTNVAWYQQKPGKAPKALIYSASYRYSGVPSRFSGSGSGTEFTLTISSLQPEDFATYYCQQYYSYPYTFGQGTKLEIKRTVAAPSVFIFPPSDEQLKSGTASVVCLLNNFYPREAKVQWKVDNALQSGNSQESVTEQDSKDSTYSLSSTLTLSKADYEKHKVYACEVTHQGLSSPVTKSFNRGEC
As a reminder, the IC50 is the point on the concentration scale where inhibition reaches its midpoint. As to B1, the figures for the IC50 in experiment [1] and in experiment [2] were 2.39 nM and 7.71 nM, respectively. Besides, the “IC50; luciferase signal of TGFβ/SMAD SBE Reporter-HEK293 cells stimulated with human TGFβ1” value in experiment [3] was found to be 2.95 nM.

B2: aflibercept peptide (positive control) (other)
chain: SDTGRPFVEMYSEIPEIIHMTEGRELVIPCRVTSPNITVTLKKFPLDTLIPDGKRIIWDSRKGFIISNATYKEIGLLTCEATVNGHLYKTNYLTHRQTNTIIDVVLSPSHGIELSVGEKLVLNCTARTELNVGIDFNWEYPSSKHQHKKLVNRDLKTQSGSEMKKFLSTLTIDGVTRSDQGLYTCAASSGLMTKKNSTFVRVHEK
Consider B2, for which the IC50 amounted to 0.2 nM in experiment [4] and 0.29 nM in experiment [5].

The values are drawn from patent publication US20200002439A1 (GENSUN BIOPHARMA, published 2020).
